Assay [1] addresses human corticotropin-releasing factor 2a (CRF2a receptor) (human), Q13324. Kind of assay: cell-based or functional assay.
Assay [2] has as its target T1, CRF1R receptor (UniProt P34998 24-415, limits assumed).
T1 sequence (looked up): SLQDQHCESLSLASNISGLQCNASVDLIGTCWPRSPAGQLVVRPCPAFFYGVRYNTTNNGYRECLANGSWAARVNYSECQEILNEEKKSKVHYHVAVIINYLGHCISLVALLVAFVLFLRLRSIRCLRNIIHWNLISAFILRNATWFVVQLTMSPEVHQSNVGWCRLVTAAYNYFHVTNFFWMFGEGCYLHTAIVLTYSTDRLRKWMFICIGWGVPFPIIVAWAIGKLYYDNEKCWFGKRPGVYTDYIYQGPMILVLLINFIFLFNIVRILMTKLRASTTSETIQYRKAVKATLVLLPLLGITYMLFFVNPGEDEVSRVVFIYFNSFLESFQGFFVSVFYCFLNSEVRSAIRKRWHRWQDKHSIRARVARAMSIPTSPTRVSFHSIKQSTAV
Kind of assay: cell-based or functional assay.

*1 amine or outer side, *2 acyl side, *3 side chain or, on linkers, in order; H or OH if unused. Where no end group is shown, it is not given here. Side-chain parts run from the residue outwards. [ ]: non-standard residue; d: D form. The star is where a group is joined. C18 diacid = O=C(O)CCCCCCCCCCCCCCCCC(=O)*; C16 diacid = O=C(O)CCCCCCCCCCCCCCC(=O)*; γGlu = O=C(O)[C@H](CCC(=O)[*:2])N[*:1]; NMeI = CC[C@H](C)[C@H](NC)C(=O)O; αMeL = CC(C)C[C@](C)(N)C(=O)O; Api = NC1(C(=O)O)CCNCC1; AEEA = NCCOCCOCC(=O)O; Aib = CC(C)(N)C(=O)O

Sequence of human corticotropin-releasing factor 2a (CRF2a receptor) (human), Q13324 (Q13324 20-411): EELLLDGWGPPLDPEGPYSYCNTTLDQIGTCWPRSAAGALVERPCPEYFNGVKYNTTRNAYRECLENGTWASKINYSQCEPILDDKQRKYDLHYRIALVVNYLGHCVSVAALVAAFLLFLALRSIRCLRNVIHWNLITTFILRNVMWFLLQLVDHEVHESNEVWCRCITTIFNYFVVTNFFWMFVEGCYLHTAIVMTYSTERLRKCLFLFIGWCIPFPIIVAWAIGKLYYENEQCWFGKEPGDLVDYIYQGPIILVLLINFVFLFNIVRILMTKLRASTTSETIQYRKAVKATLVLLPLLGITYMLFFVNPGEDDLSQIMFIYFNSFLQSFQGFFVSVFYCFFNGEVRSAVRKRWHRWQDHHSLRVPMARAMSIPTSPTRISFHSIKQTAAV

B1: SEQ ID NO 99 (peptide)
peptide: Ac-VLSLD[dV]PIKLK([AEEA-AEEA-γGlu-C18 diacid])KILLEQEKQKKQREQAETN[Aib]QILAQV-NH2
SMILES: CC[C@H](C)[C@H](NC(=O)[C@H](CCC(N)=O)NC(=O)C(C)(C)NC(=O)[C@H](CC(N)=O)NC(=O)[C@@H](NC(=O)[C@H](CCC(=O)O)NC(=O)[C@H](C)NC(=O)[C@H](CCC(N)=O)NC(=O)[C@H](CCC(=O)O)NC(=O)[C@H](CCCNC(=N)N)NC(=O)[C@H](CCC(N)=O)NC(=O)[C@H](CCCCN)NC(=O)[C@H](CCCCN)NC(=O)[C@H](CCC(N)=O)NC(=O)[C@H](CCCCN)NC(=O)[C@H](CCC(=O)O)NC(=O)[C@H](CCC(N)=O)NC(=O)[C@H](CCC(=O)O)NC(=O)[C@H](CC(C)C)NC(=O)[C@H](CC(C)C)NC(=O)[C@@H](NC(=O)[C@H](CCCCN)NC(=O)[C@H](CCCCNC(=O)COCCOCCNC(=O)COCCOCCNC(=O)CC[C@H](NC(=O)CCCCCCCCCCCCCCCCC(=O)O)C(=O)O)NC(=O)[C@H](CC(C)C)NC(=O)[C@H](CCCCN)NC(=O)[C@@H](NC(=O)[C@@H]1CCCN1C(=O)[C@H](NC(=O)[C@H](CC(=O)O)NC(=O)[C@H](CC(C)C)NC(=O)[C@H](CO)NC(=O)[C@H](CC(C)C)NC(=O)[C@@H](NC(C)=O)C(C)C)C(C)C)[C@@H](C)CC)[C@@H](C)CC)[C@@H](C)O)C(=O)N[C@@H](CC(C)C)C(=O)N[C@@H](C)C(=O)N[C@@H](CCC(N)=O)C(=O)N[C@H](C(N)=O)C(C)C
With B1, the EC50 [nM] (cAMP) in assay [1] was determined as 6.07 nM. The “Emax (% I)” value in assay [2] stood at 0%.

B2: SEQ ID NO 98 (peptide)
peptide: Ac-IVLSLD[dV]PIKLK([AEEA-AEEA-γGlu-C18 diacid])KILLEQEKQKKQREQAETN[Aib]QILAQV-NH2
SMILES: CC[C@H](C)[C@H](NC(C)=O)C(=O)N[C@H](C(=O)N[C@@H](CC(C)C)C(=O)N[C@@H](CO)C(=O)N[C@@H](CC(C)C)C(=O)N[C@@H](CC(=O)O)C(=O)N[C@@H](C(=O)N1CCC[C@H]1C(=O)N[C@H](C(=O)N[C@@H](CCCCN)C(=O)N[C@@H](CC(C)C)C(=O)N[C@@H](CCCCNC(=O)COCCOCCNC(=O)COCCOCCNC(=O)CC[C@H](NC(=O)CCCCCCCCCCCCCCCCC(=O)O)C(=O)O)C(=O)N[C@@H](CCCCN)C(=O)N[C@H](C(=O)N[C@@H](CC(C)C)C(=O)N[C@@H](CC(C)C)C(=O)N[C@@H](CCC(=O)O)C(=O)N[C@@H](CCC(N)=O)C(=O)N[C@@H](CCC(=O)O)C(=O)N[C@@H](CCCCN)C(=O)N[C@@H](CCC(N)=O)C(=O)N[C@@H](CCCCN)C(=O)N[C@@H](CCCCN)C(=O)N[C@@H](CCC(N)=O)C(=O)N[C@@H](CCCNC(=N)N)C(=O)N[C@@H](CCC(=O)O)C(=O)N[C@@H](CCC(N)=O)C(=O)N[C@@H](C)C(=O)N[C@@H](CCC(=O)O)C(=O)N[C@H](C(=O)N[C@@H](CC(N)=O)C(=O)NC(C)(C)C(=O)N[C@@H](CCC(N)=O)C(=O)N[C@H](C(=O)N[C@@H](CC(C)C)C(=O)N[C@@H](C)C(=O)N[C@@H](CCC(N)=O)C(=O)N[C@H](C(N)=O)C(C)C)[C@@H](C)CC)[C@@H](C)O)[C@@H](C)CC)[C@@H](C)CC)C(C)C)C(C)C
For the molecule B2, the EC50 [nM] (cAMP) in assay [1] came to 0.55 nM. The “Emax (% I)” value in assay [2] was -2%.

B3: SEQ ID NO 109 (peptide)
peptide: Ac-IVLSLD[dV]PIKLK([AEEA-AEEA-γGlu-C18 diacid])KILLEQEKQKKQREQAETN[Api]QILAQV-NH2
SMILES: CC[C@H](C)[C@H](NC(C)=O)C(=O)N[C@H](C(=O)N[C@@H](CC(C)C)C(=O)N[C@@H](CO)C(=O)N[C@@H](CC(C)C)C(=O)N[C@@H](CC(=O)O)C(=O)N[C@@H](C(=O)N1CCC[C@H]1C(=O)N[C@H](C(=O)N[C@@H](CCCCN)C(=O)N[C@@H](CC(C)C)C(=O)N[C@@H](CCCCNC(=O)COCCOCCNC(=O)COCCOCCNC(=O)CC[C@H](NC(=O)CCCCCCCCCCCCCCCCC(=O)O)C(=O)O)C(=O)N[C@@H](CCCCN)C(=O)N[C@H](C(=O)N[C@@H](CC(C)C)C(=O)N[C@@H](CC(C)C)C(=O)N[C@@H](CCC(=O)O)C(=O)N[C@@H](CCC(N)=O)C(=O)N[C@@H](CCC(=O)O)C(=O)N[C@@H](CCCCN)C(=O)N[C@@H](CCC(N)=O)C(=O)N[C@@H](CCCCN)C(=O)N[C@@H](CCCCN)C(=O)N[C@@H](CCC(N)=O)C(=O)N[C@@H](CCCNC(=N)N)C(=O)N[C@@H](CCC(=O)O)C(=O)N[C@@H](CCC(N)=O)C(=O)N[C@@H](C)C(=O)N[C@@H](CCC(=O)O)C(=O)N[C@H](C(=O)N[C@@H](CC(N)=O)C(=O)NC1(C(=O)N[C@@H](CCC(N)=O)C(=O)N[C@H](C(=O)N[C@@H](CC(C)C)C(=O)N[C@@H](C)C(=O)N[C@@H](CCC(N)=O)C(=O)N[C@H](C(N)=O)C(C)C)[C@@H](C)CC)CCNCC1)[C@@H](C)O)[C@@H](C)CC)[C@@H](C)CC)C(C)C)C(C)C
With B3, the EC50 [nM] (cAMP) in assay [1] turned out to be 1 nM. In assay [2], the “Emax (% I)” value came out at 4%.

B4: SEQ ID NO 68 (peptide)
peptide: [NMeI]VLSLD[dV]PIKLK([γGlu-C16 diacid])KILLEQEKQKKQREQAETNAQILAQV-NH2
modifications: N-terminus assumed
SMILES: CC[C@H](C)[C@H](NC)C(=O)N[C@H](C(=O)N[C@@H](CC(C)C)C(=O)N[C@@H](CO)C(=O)N[C@@H](CC(C)C)C(=O)N[C@@H](CC(=O)O)C(=O)N[C@@H](C(=O)N1CCC[C@H]1C(=O)N[C@H](C(=O)N[C@@H](CCCCN)C(=O)N[C@@H](CC(C)C)C(=O)N[C@@H](CCCCNC(=O)CC[C@H](NC(=O)CCCCCCCCCCCCCCC(=O)O)C(=O)O)C(=O)N[C@@H](CCCCN)C(=O)N[C@H](C(=O)N[C@@H](CC(C)C)C(=O)N[C@@H](CC(C)C)C(=O)N[C@@H](CCC(=O)O)C(=O)N[C@@H](CCC(N)=O)C(=O)N[C@@H](CCC(=O)O)C(=O)N[C@@H](CCCCN)C(=O)N[C@@H](CCC(N)=O)C(=O)N[C@@H](CCCCN)C(=O)N[C@@H](CCCCN)C(=O)N[C@@H](CCC(N)=O)C(=O)N[C@@H](CCCNC(=N)N)C(=O)N[C@@H](CCC(=O)O)C(=O)N[C@@H](CCC(N)=O)C(=O)N[C@@H](C)C(=O)N[C@@H](CCC(=O)O)C(=O)N[C@H](C(=O)N[C@@H](CC(N)=O)C(=O)N[C@@H](C)C(=O)N[C@@H](CCC(N)=O)C(=O)N[C@H](C(=O)N[C@@H](CC(C)C)C(=O)N[C@@H](C)C(=O)N[C@@H](CCC(N)=O)C(=O)N[C@H](C(N)=O)C(C)C)[C@@H](C)CC)[C@@H](C)O)[C@@H](C)CC)[C@@H](C)CC)C(C)C)C(C)C
On to B4, for which, in assay [1], the EC50 [nM] (cAMP) amounted to 0.05 nM. The “Emax (% I)” value in assay [2] came to 8%.

B5: SEQ ID NO 112 (peptide)
peptide: Ac-IVLSLD[dV]PIK[αMeL]K([AEEA-AEEA-γGlu-C18 diacid])KILLEQEKQKKQREQAETNAQILAQV-NH2
SMILES: CC[C@H](C)[C@H](NC(C)=O)C(=O)N[C@H](C(=O)N[C@@H](CC(C)C)C(=O)N[C@@H](CO)C(=O)N[C@@H](CC(C)C)C(=O)N[C@@H](CC(=O)O)C(=O)N[C@@H](C(=O)N1CCC[C@H]1C(=O)N[C@H](C(=O)N[C@@H](CCCCN)C(=O)N[C@@](C)(CC(C)C)C(=O)N[C@@H](CCCCNC(=O)COCCOCCNC(=O)COCCOCCNC(=O)CC[C@H](NC(=O)CCCCCCCCCCCCCCCCC(=O)O)C(=O)O)C(=O)N[C@@H](CCCCN)C(=O)N[C@H](C(=O)N[C@@H](CC(C)C)C(=O)N[C@@H](CC(C)C)C(=O)N[C@@H](CCC(=O)O)C(=O)N[C@@H](CCC(N)=O)C(=O)N[C@@H](CCC(=O)O)C(=O)N[C@@H](CCCCN)C(=O)N[C@@H](CCC(N)=O)C(=O)N[C@@H](CCCCN)C(=O)N[C@@H](CCCCN)C(=O)N[C@@H](CCC(N)=O)C(=O)N[C@@H](CCCNC(=N)N)C(=O)N[C@@H](CCC(=O)O)C(=O)N[C@@H](CCC(N)=O)C(=O)N[C@@H](C)C(=O)N[C@@H](CCC(=O)O)C(=O)N[C@H](C(=O)N[C@@H](CC(N)=O)C(=O)N[C@@H](C)C(=O)N[C@@H](CCC(N)=O)C(=O)N[C@H](C(=O)N[C@@H](CC(C)C)C(=O)N[C@@H](C)C(=O)N[C@@H](CCC(N)=O)C(=O)N[C@H](C(N)=O)C(C)C)[C@@H](C)CC)[C@@H](C)O)[C@@H](C)CC)[C@@H](C)CC)C(C)C)C(C)C
As to B5, in assay [1], the EC50 [nM] (cAMP) stood at 0.28 nM. For the same molecule, the “Emax (% I)” value in assay [2] was found to be 3%.

B6: SEQ ID NO 101 (peptide)
peptide: Ac-VLSLD[dV]PIKLK([AEEA-AEEA-γGlu-C18 diacid])KILLEQEKQKKQREQAETNAQILAQV-NH2
SMILES: CC[C@H](C)[C@H](NC(=O)[C@H](CCC(N)=O)NC(=O)[C@H](C)NC(=O)[C@H](CC(N)=O)NC(=O)[C@@H](NC(=O)[C@H](CCC(=O)O)NC(=O)[C@H](C)NC(=O)[C@H](CCC(N)=O)NC(=O)[C@H](CCC(=O)O)NC(=O)[C@H](CCCNC(=N)N)NC(=O)[C@H](CCC(N)=O)NC(=O)[C@H](CCCCN)NC(=O)[C@H](CCCCN)NC(=O)[C@H](CCC(N)=O)NC(=O)[C@H](CCCCN)NC(=O)[C@H](CCC(=O)O)NC(=O)[C@H](CCC(N)=O)NC(=O)[C@H](CCC(=O)O)NC(=O)[C@H](CC(C)C)NC(=O)[C@H](CC(C)C)NC(=O)[C@@H](NC(=O)[C@H](CCCCN)NC(=O)[C@H](CCCCNC(=O)COCCOCCNC(=O)COCCOCCNC(=O)CC[C@H](NC(=O)CCCCCCCCCCCCCCCCC(=O)O)C(=O)O)NC(=O)[C@H](CC(C)C)NC(=O)[C@H](CCCCN)NC(=O)[C@@H](NC(=O)[C@@H]1CCCN1C(=O)[C@H](NC(=O)[C@H](CC(=O)O)NC(=O)[C@H](CC(C)C)NC(=O)[C@H](CO)NC(=O)[C@H](CC(C)C)NC(=O)[C@@H](NC(C)=O)C(C)C)C(C)C)[C@@H](C)CC)[C@@H](C)CC)[C@@H](C)O)C(=O)N[C@@H](CC(C)C)C(=O)N[C@@H](C)C(=O)N[C@@H](CCC(N)=O)C(=O)N[C@H](C(N)=O)C(C)C
B6 registered an EC50 [nM] (cAMP) in assay [1] of 1.74 nM. Besides, in assay [2], the “Emax (% I)” value was found to be 0%.

(Values after patent publication US20260001928A1 (CORTERIA PHARMACEUTICALS, priority 2022, published 2026).)
